Test results published in patent US20210060068A1 (Stanford University, published 2021).
One block for each binder: values may come before it.

B3: wild-type mouse IL-2 (ligand)
chain: APTSSSTSSSTAEAQQQQQQQQQQQQHLEQLLMDLQELLSRMENYRNLKLPRMLTFKFYLPKQATELKDLQCLEDELGPLRHVLDLTQSKSFQLEDAENFISNIRVTVVKLKGSDNTFECQFDDESATVVDFLRRWIAFCQSIISTSPQ
notes: Soluble protein flowed over the SPR chip; also called wt mIL-2; wild-type IL-2

What was measured:
[1] = target: T1, yeast-displayed wild-type human IL-2 (human, UniProt P60568 21-153); assay: FACS, yeast-displayed hIL-2 stained with receptor tetramers
T1 construct: also called wild-type IL-2; hIL-2
T1 sequence (P60568 21-153): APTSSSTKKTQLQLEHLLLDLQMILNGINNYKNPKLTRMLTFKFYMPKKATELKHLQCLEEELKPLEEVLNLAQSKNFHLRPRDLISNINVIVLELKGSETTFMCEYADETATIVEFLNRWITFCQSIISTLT
Experimental: We introduced the H133D Y134F mutations that were used to create the mouse orthol L-2Rβ into human IL-2Rβ, as these residues are highly conserved between mouse and human.
Yeast display of IL-2. […] Transformed yeast were passaged once in SDCAA and yeast cultures in log phase were pelleted and resuspended at an OD600 of 1.0 in SGCAA induction media containing 10% SDCAA and cultured for 24 hr at 20° C.

wild-type mouse IL-2 = target: B3; assay: surface plasmon resonance
wild-type mouse IL-2Rβ = target: T2, wild-type mouse IL-2Rβ (mouse, UniProt P16297 27-240, limits assumed); assay: SPR, soluble IL-2 over a receptor-coated chip, 1:1 binding model
T2 construct: Recombinant protein coated on the SPR chip or used to stain yeast; also called wild-type IL-2Rβ; mIL-2Rβ
T2 sequence: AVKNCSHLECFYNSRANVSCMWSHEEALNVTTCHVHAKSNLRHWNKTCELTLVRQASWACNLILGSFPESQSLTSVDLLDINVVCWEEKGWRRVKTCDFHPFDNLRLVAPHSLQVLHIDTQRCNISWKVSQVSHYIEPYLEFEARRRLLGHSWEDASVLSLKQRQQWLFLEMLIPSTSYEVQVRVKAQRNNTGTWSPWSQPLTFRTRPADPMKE
Experimental: Binding was determined by surface plasmon resonance (SPR) and curves were fitted using a 1:1 binding model.

binding result [1]: no binding
B1: ortho human IL-2Rβ H133D Y134F mutant tetramers (receptor)
chain: AVNGTSQFTCFYNSRANISCVWSQDGALQDTSCQVHAWPDRRRWNQTCELLPVSQASWACNLILGAPDSQKLTTVDIVTLRVLCREGVRWRVMAIQDFKPFENLRLMAPISLQVVHVETHRCNISWEISQASDFFERHLEFEARTLSPGHTWEEAPLLTLKQKQEWICLETLTPDTQYEFQVRVKPLQGEFTTWSPWSQPLAFRTKPAALGKDT
notes: Tetramers used to stain yeast; also called ortho-hIL-2Rβ; ortho hIL-2Rβ

binding result (wild-type mouse IL-2): no binding
B2: orthogonal mouse IL-2Rβ H134D Y135F (receptor)
chain: AVKNCSHLECFYNSRANVSCMWSHEEALNVTTCHVHAKSNLRHWNKTCELTLVRQASWACNLILGSFPESQSLTSVDLLDINVVCWEEKGWRRVKTCDFHPFDNLRLVAPHSLQVLHIDTQRCNISWKVSQVSDFIEPYLEFEARRRLLGHSWEDASVLSLKQRQQWLFLEMLIPSTSYEVQVRVKAQRNNTGTWSPWSQPLTFRTRPADPMKE
notes: Recombinant protein coated on the SPR chip or used to stain yeast; also called orthoIL-2Rβ; mIL-2Rβ H134D Y135F

Binder: B3
binding result (wild-type mouse IL-2Rβ): binds
